Data taken from paper PMC9664764 (iScience, 2022).

Biological target: T1, full-length Spike of SARS-CoV-2 on transfected 293T cells (SARS-CoV-2, UniProt P0DTC2)
T1 construct: also called Spike-expressing cells; Wuhan-hu-1 Spike
Assay: flow cytometry on cells
Settings: one partner purified

B1: Ab159 (antibody, V domains shown)
VH: QVQLVESGGGLVKPGGSLRLSCAASGFTFNNAWMSWVRQAPGKGLEWVGRIKSKTDGGTTDYAAPVKGRFTFSRDDSKNTLYLQMSSLKTEDTALYYCTTADYDILTGTPASPYWGQGTLVTVSS
VL: DIQMTQSPSSLSASVGDRVTITCRASQSITNYLNWYQQKPGKAPKFLIYAASSLQGGVPSRFRGSGSGTDFTLTISSLQPEDFATYYCQQTYSTLWTFGQGTKVEIK
notes: copies: 2 + 2
binding result: binds
